Experimental data taken from a protein production outcome set (Wang et al. 2014).

Experiment: label from the status in PepcDB records

Row | Sequence | protein production
1 | MRRQELARQCGERSKKDNKKGSAKAKKMEQMRNESRASTPSKDSNTSQSTASSTPTTSAGPGSKSEAGSTGTTTTNSTANSTTSRAHRKSTQSTPSTARPGTPSDKKEDPAAAETTEEEGPVAPKKKRMSEQRPSLTGSDVAEKPLPPTT | failed
2 | MRRQTMVKAGAVACAVALLGSLSACGGSKKSTTTADGKPIVTVLVKKNANQEKMANMQWAKDLEADCDCKIEWQEVTREAWAQQKNATLASGDIADVNLNGYGAVEAYQYPGMFEDLSKDLDKLPNVKAFFKQKPDAKKMSTDSKGRIYAIADGRGKAYSGTGQHMLINKAWLDKLGLQVPTTWDELENVLKAFKTQDPNGNGQADEIPMNIKKLEGSYFTWYSPMLLLNSTGIVTGFNKGVSEYGFYAKNGVVKSFLTSDEYKEVIKYYHKLISEGLIPAEWATKDDDAYNADQISDGKTAKTGVVFGWSPSDNFGKLKDQYIAMPVPSAPGVSPDQTVWDGSSSELSPAGLSISSHAANKDAALKLANLLYSEKYSVQQFLGSFGKAITKTGEHEYTVDNDKLSQLTGDNQYPGLSELLVGWIPDEATIKGDTHADELIEVNKVYEEQRSHFDPVKDYIPDYVNMDNMDPSDATKLNTNNAEIFNTTMQKTATWMSKGGIDEEWDAYCKQLDSIGLQESTKIWQKWYDTYTK | not failed
3 | MRRRDPSRKMILRMSHVVRRLRPDGIVELRPRDVRVERPEWYLGAYTTFLVSGALFISTAVPAQLVAITFLGCLLGEVCFGLRALVALRRPLAEVEVLAPMRRVR | failed
4 | MRRRWYNNGGFQTLRMLEESSSEVTSSSALGLPPAMVMSPESLASPEYGGLELWGYDDGITYSMAQSLGTCTMEQQQPQPQQQPQQTQPLPSMPLPMPPTTPKSENESMSSGREELSPASSVNGCSTDGEARRQKKGPAPRQQEELCLVCGDRASGYHYNALTCEGCKGFFRRSVTKNAVYICKFGHACEMDMYMRRKCQECRLKKCLAVGMRPECVVPENQCAMKRKEKKAQREKDKLPVSTTTVDDHMPPIMQCDPPPPEAARIHEVVPRFLNEKLMEQNRLKNVPPLTANQKSLIARLVWYQEGYEQPSEEDLKRVTQTWQSDEDDEDSDMPFRQITEMTILTVQLIVEFAKGLPGFAKISQSDQITLLKACSSEVMMLRVARRYDAATDSVLFANNQAYTRDNYRKAGMAYVIEDLLHFCRCMYSMMMDNVHYALLTAIVIFSDRPGLEQPLLVEEIQRYYLNTLRVYILNQNSASPRCAVIFGKILGILTEIRTLGMQNSNMCISLKLKNRKLPPFLEEIWDVADVATTATPVAAEAPAPLAPAPPARPPATV | not failed
5 | MRRSKYFTPNEVSLHNTINDIWVSYLGKVYDLTPLLEAYKGDVLLKPIIECAGKDISHWFDPKTKDILTHVDPLTGCIKYYTPRGRFIHIPPPCPRTDWANNFGKPWWKDNRYEVGLLSAKTRWIRIINTLTSQEQKLEVCSEESLDEILHRYLFYNSHAASYTWKLSGINLDMSKTLSENGIPEEDEFYCGSPDCNLFSPSICLYFNDDLTEL | failed
6 | MRRTPRKATAAGALMAATAFLTVGIQAVPATAKPAAPHPSPLRTGGQEAKLTPAQHSALLKSAAKKTTTTAATLGLGAKEKLVVRDVVKDNDGTLHTRYERTWAGLPVLGGDVVVHTPPASLAAGTVSSTFNNKRTIKVASTTASFTRSAAVTKALKAAKDLAAEKATTDSARKVIWAGSGAPKLAWETVIGGLQDDGTPSQLHVITDATTGKELYRYQGVKTGTGNTQYSGTVSLSTTLSGSTYQLYDTTRGGHKTYSLNNGTSGTGTLMTDADDTWGTGSGSNTQTAGADAAYGAQTTWDFYKNTFGRSGIKNDGVAAYSRVHYSTAYVNAFWDDDCFCMTYGDGTSSTHALTSLDVAGHEMSHGVTSNTAGLNYTGESGGLNEATSDIFGTGVEFYAANSSDVGDYLIGEKIDINGDGTPLRYMDEPDKDGGSADSWYSGVGNLDVHYSSGPANHMFYLLSEGSGSKTINGVTYNSPTSDGVAVAGIGRAAALQIWYKALTTYMTSSTNYAGARTAALNAATALYGASSTQYAGVANAFAGINVGSHVTPPTSGVTVTNPGSQSSTVGTAVSLQVSASSTNSGSLTYAATGLPTGLSVNSSTGVISGTPTTAGTYSTTVTVTDSTGATGTASFTWTVSSSGGGGTCASTQLLGNPGFESGNTTWTASSGVITNSSSEAAHAGSYKAWLDGYGSTHTDTLSQSVTIPSGCKASLTFYLHIDTAETTTSTQYDKLTVTAGSTTLATYSNLNAASGYTQKTFDLSSLAGTTVALKFSGVEDSSLQTSFVIDDTALTTS | failed
7 | MRSDVVARAMRLIADGTVDRDGVSGLAAQLGYTIRQLERLLQAVVGAGPLALARAQRMQTARVLIETTNLPFGDVAFAAGFSSIRQFNDTVRLACDGTPTALRARAAARFESATASAGTVSLRLPVRAPFAFEGVFGHLAATAVPGCEEVRDGAYRRTLRLPWGNGIVSLTPAPDHVRCLLVLDDFRDLMTATARCRRLLDLDADPEAIVEALGADPDLRAVVGKAPGQRIPRTVDEAEFAVRAVLAQQVSTKAASTHAGRLVAAYGRPVHDRHGALTHTFPSIEQLAEIDPGHLAVPKARQRTINALVASLADKSLVLDAGCDWQRARGQLLALPGVGPWTAEVIAMRGLGDPDAFPASDLGLRLAAKKLGLPAQRRALTVHSARWRPWRSYATQHLWTTLEHPVNQWPPQEKIALEHHHHHH | failed
8 | MRSKFVLFMLMSLLTGSLMANSEAQIYGYVEKATLIDQNLTLSAKLDTGAKSASLHAVNITEIEKKGIPYLRFTVPTKTGDYSFEGEYVGKVKIKVRSSETNPGLLRTTPIKRPVVLLNIKLGDKVRTIKVNLTNRKRFLYPLLLGRDAIIDFNGAVDPALTFTTKSKSPVNNEK | failed
9 | MRSLTHIAKIEPPPVRRVTYVKHYSIQPANLEFNAEGTPVSRDFDDVYFSNDNGLEETRYVFLGGNQLEVRFPEHPHPLFVVAESGFGTGLNFLTLWQAFDQFREAHPQAQLQRLHFISFEKFPLTRADLALAHQHWPELAPWAEQLQAQWPMPLPGCHRLLLDEGRVTLDLWFGDINELTSQLDDSLNQKVDAWFLDGFAPAKNPDMWTQNLFNAMARLARPGGTLATFTSAGFVRRGLQDAGFTMQKRKGFGRKREMLCGVMEQTLPLPCSAPWFNRTGSSKREAAIIGGGIASALLSLALLRRGWQVTLYCADEAPALGASGNRQGALYPLLSKHDEALNRFFSNAFTFARRFYDQLPVKFDHDWCGVTQLGWDEKSQHKIAQMLSMDLPAELAVAVEANAVEQITGVATNCSGITYPQGGWLCPAELTRNVLELAQQQGLQIYYQYQLQNLSRKDDCWLLNFAGDQQATHSVVVLANGHQISRFSQTSTLPVYSVAGQVSHIPTTPELAELKQVLCYDGYLTPQNPANQHHCIGASYHRGSEDTAYSEDDQQQNRQRLIDCFPQAQWAKEVDVSDKEARCGVRCATRDHLPMVGNVPDYEATLVEYASLAEQKDEAVSAPVFDDLFMFAALGSRGLCSAPLCAEILAAQMSDEPIPMDASTLAALNPNRLWVRKLLKGKAVKAG | failed
10 | MRSQPTVSVIVPARNEAGNIAAAVERLPELGAETELIFVEGHSRDQTWETIEQTVAEYQGPLKLLACRQTGKGKADAVRLGFDKASGDILMILDADLTVQPEDLGHFYRAIASGRGEFINGSRLVYPRSRLAMPGLNTLANRTFALIFSFLLGQPLKDTLCGTKVLWKTDYDRVAAGRKYFGDFDPFGDFDLLFGAAKLGLEIVEVPVRYQERSYGSSNIAHVREGLILARMCLYAAGKLKFPLEHHHHHH | failed
11 | MRSTTSTLMLIKKTAIAVSLAVGSMVISGCDTNEVAKEISQPTIRPALTEIVSPSANAQLRFNGVVRSAQRADLAFRMSSRVISVLVDEGQQVKKGQLLAQLDPRDAQTALESARVEYKNSKAEYTRGKAIYEKSQAIAKSDLDTLTTRYQLAKNRLDEAQRQLEYTQLHAPFDGVIGKKMIDNHVQIQANSPVLTVHNVDDLEVLINIPDSVMLGDLKGSKALAQISALRNETFPLVLSTYGTQADPITQTYPVVLTFEDLRGFNVLPGMTVKVVPVYSDEQDQASLLITVPLTAVVPDNQGGQFVWVVTQENKVQKRIISAGTLVSNRIVINDGLQTGERIITAGASSLKEGMEVRPYTDTLSSQVEK | failed
12 | MRTFTWRKGSLSKVNTCYVLAGGKSKRFGEDKLLYEIKGKKVIERVYETAKSVFKEVYIVAKDREKFSFLNAPVVLDEFEESASIIGLYTALKHAKEENVFVLSGDLPLMKKETVLYVLENFKEPVSVAKTEKLHTLVGVYSKKLLEKIEERIKKGDYRIWALLKDVGYNEVEIPEELRYTLLNMNTKEDLKRILAIENHY | not failed
13 | MRTGRSPPTPSTRCAVALVCSWSLIRVVRLSMARRSRCRLGMPSGVPGRCRRFSMTLTSLSGSTWNTRLLTAPISVRSCCTQPSWVVSRGLLVCLPSITPVLSRYGSLRSRCAWCRWLRPLTTTSPGSQRCWVPAGFGSRRTCPRTGLARRSATPLRTRCLSSSSRAVRMPRLVPYPSGCVMALRSMASSWTRQCVSLQLGTVGTATTIRLPRRCAESLMTEDYRLEFAEELVGVPDPFRRFWTPYRMAYISGENKPRGNRPEDGCPFCRAPQRSDEDALIVHRGEHCYVIMNLYPYGPGHMLVCPYRHVAGYVDATQDEVVEMAELTQDAIRTLQEVSRPQGFNVGINQGASGGAGVAAHLHQHVIPRWTGDTNFLPIVAGVRAVPQLLGDGRQMLADAWVGHA | failed
14 | MRTKILLLTFTLLSSFSVLSQGNDLEQGMYELNRGEFKAAIEQFRPLVNEGYAPAQYQMALVYLHGYSVRKDSMKALELFELSAAQNYPDAQFELALIYSDGKLVKQNLKKAFELTHKAANKDLPSAQFNLAVMYANGTGIKQDDFKASRWYQRAANQNYALAQFNLALLYSEGKGVEKSTELSYVWNTIASWNGYPNAEKSRLMDERDLSKLKIEKSIEKANDIYQKIRDQQEMKAKMAEKQNFY | failed
15 | MRTNKDRLVRISVVGEIAPAKMRSPYSVTTEGTVRVIPVLGGITYNVKVGDSAYGWAGDHVEPGVSVMARRKEEEIPLMTLSCIGNEVIVMSGDAKGSRGFVTGKHGGVNHVLVHFEEEVLGKLMVGDKILIKAWGQGLKLLDHPDVKVMNIDPDLFEKLGIQEKNGKIHVPVVAKIPAHMMGSGIGASSSASTDYDIMASNPEDLGVADLKLGDIVAIQDHDNSYGVGKYRKGAVSIGVVVHSACVSAGHGPGVVVIMTGDESKILPEEVERANISDYLVR | not failed
16 | MRTPRFLRAVHANRTTARDVSSLRLPLQPRRDRARPGAMRTGLQGSVGIQCQLQRQHCQRQVASHAHYCADRGAVHCDGIACLDRAIGFQQLQGALGLAQEMRARHDLLTRVAAFFDAVGLQTVECQLLWRPLFALALDQASEPQLQIRAPPLRIYARRFDRRCQCFFGVQQQGARQRSAAQIQHDTLRSEIGLRGARAFRCCEAAKGKQRGSADFQLAAEDETAELGGDLGRVAVRQQHQQVCIVLTQKCEDGNHAPLRRQPRIPLPLPNRQRLYVIGKLGMRERHCIRADQSDVLDILQGAKTLRNKIQVVSHGRGGLKSPSCESTMIGHPTPTPAQDSETQPSSQEHIPEKKPLPKEIGGRDGPEPTRYGDWEKNGRCIDF | failed
17 | MRTTADRIRHTVGFELIGLLIFAPLASLVFGYALHQMGLVGAVASLIAAVWNYVYNILFDRGMLRFTGQLRKTPAIRVLHAILFEGGLLLVFLPSVAWYLDMTLLDAFIMDIAVAGFYMVYALVYNWVYDAVFPIPGLKAKEDSQPADCPSAN | failed
